According to the RNAGym collection of RNA variant scans (doi:10.1073/pnas.2313332121):

B1: TPR t1 (parent)
chain: GACCAAUCUGCCCUCAGAGCUCGAGAACAUCUUCGGAUGCAGAGGAGGCAGGCUUCGGUGGCGCGAUAGCGCCAACGUCCUCAACCUCCAAUGCAUCCCACCACAUGAUGAUGCCUGAAGAGCCUUGGUUUUUUG

Variants of: B1
Test: polymerase ribozyme fitness, log enrichment relative to wild type (log ratio); higher = more active; in vitro selection for triplet polymerase activity
Method in brief: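 A single round of triplicate in vitro selection, including frozen incubation at −7 °C, was applied to PCR-built, transcribed mutant libraries of each subunit of a heterodimeric triplet polymerase ribozyme. Illumina sequencing of input and output libraries retained genotypes with ≥10 input reads and ≥1 read per output. Fitness is the base-2 logarithm of genotype enrichment divided by wild-type enrichment, from inverse-variance-weighted replicate averages.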

Row | Variant | polymerase ribozyme fitness (log ratio)
1 | GACCAAUCUGCCCUCAGAGCUCGAGAACAUCUUCGGAUGCAGAGGAGGCAGGCUUCGGUGGCGCGAUAGCGGCAACGUCCUCAACCUCCAAUGCAUCCCACCACAUGAUGAUGCCUGAGGAGCCUUGGUUUUUUG | 1.3
2 | GACCAAUCUGCCCUCAGAGCUCGAGAACAUCUUCGGAUGCAGAGGAGGCAGGCUUCGGUGGCGCGAUAGCGGCAACGUCCUCAACCUCCAAUGCAUCCCACCACAUGAUGAUGACUGAAGAGCCUUGGUCUUGUG | -1.37
3 | GACCAAUCUGCCCUCAGAGCUCGAGAACAUCUUCGGAUGCAGAGGAGGCAGGCUUCGGUGGCGCGAUAGCGGCAACGUCCUCAACCUCCAAUGCCUCCCACCACAUGAUGAUGCCUGAAGAGCCUUGGUUUUUUG | -2.36
4 | GACCAAUCUGCCCUCAGAGCUCGAGAACAUCUUCGGAUGCAGAGGAGGCAGGCUUCGGUGGCGCGAUAGCGACAACGUCCUCAACCUCCAAUGCAUCCCACCACAUGAUGAUGCCUGAAGAGCCUUGGUUCUUUG | -0.247
5 | GACCAAUCUGCCCUCAGAGCUCGAGAACAUCUUCGGAUGCAGAGGAGGCAGGCUUCGGUGGCGCGAUAGCGGCAACGUCCUCAACCUCCAAUGCAUCCCACCACAUGAUGAUGCCUGAAGAGCUUUGGUUUUUUG | 1.15
6 | GACCAAUCUGCCCUCAGAGCUCGAGAACAUCUUCGGAUGCAGAGGAGGCAGGCUUCGGUGGCGCGAUAGCGGCAACGUCCUCAACCUCCAAUGCAUCCCACCACAUGAUGAUGCCUUAAGUGCCUUAGUUUUUUG | -3.25
7 | GACCAAUCUGCCCUCAGAGCUCGAGAACAUCUUCGGAUGCAGAGGAGGCAGGCUUCGGUGGCGCGAUAGCGACAACGUCCUCAACCUCCAAUGCAUCCCACCACAUGAUGAUGCCUGAAGAGCCGUGGUUAUUUG | -0.709
8 | GACCAAUCUGCCCUCAGAGCUCGAGAACAUCUUCGGAUGCAGAGGAGGCAGGCUUCGGUGGCGCGAUAGCGGCAACGUCAUCAACCUCCAAUGCAUCCCACCACAUGAUGAUGCCUGAAGAGCCUUGGUUUUUUG | -5.5
9 | GACCAAUCUGCCCUCAGAGCUCGAGAACAUCUUCGGAUGCAGAGGAGGCAGGCUUCGGUGGCGCGAUAGCGGCAACGUCCUCAACCUCCAAUGCAUCCCACUACAGGAUGAUGCCUGAAGAGCCUUGGUUUUUUG | -4.73
10 | GACCAAUCUGCCCUCAGAGCUCGAGAACAUCUUCGGAUGCAGAGGAGGCAGGCUUCGGUGGCGCGAUAGCGGCAACGUCCUCAACCUCCAAUGCAUCCCACCACAUGAUGAUGCCUCAUGAGCCUUGGUUUUUUG | -0.356
11 | GACCAAUCUGCCCUCAGAGCUCGAGAACAUCUUCGGAUGCAGAGGAGGCAGGCUUCGGUGGCGCGAUAGCGGCAACGUCCUCAACCUCCAAUGUAUCCCACCACAUGAUGAUGCCUGAAGAGCCUUGGUUUUUUG | 0.173
12 | GACCAAUCUGCCCUCAGAGCUCGAGAACAUCUUCGGAUGCAGAGGAGGCAGGCUUCGGUGGCGCGAUAGCGGCAACGUCCUCAACCUCCAAUGCAUCCCACCACAUGAUGAUGCCUGAAGAGUCUUGGUUUUUUG | 0.62
13 | GACCAAUCUGCCCUCAGAGCUCGAGAACAUCUUCGGAUGCAGAGGAGGCAGGCUUCGGUGGCGCGAUAGCGGCAACGUCCUCAACCUCCACUGCAUCCCACCACAUGAUGAUGCCUGAAGAGCCUUGGUUUUUUG | -1.51
14 | GACCAAUCUGCCCUCAGAGCUCGAGAACAUCUUCGGAUGCAGAGGAGGCAGGCUUCGGUGGCGCGAUAGCGGCAACGUCCUCAACCUCCAGUGCAUCCCACCACAUGAUGAUGCCUGAAGAGCCUUGGUUUUUUG | -1.13
15 | GACCAAUCUGCCCUCAGAGCUCGAGAACAUCUUCGGAUGCAGAGGAGGCAGGCUUCGGUGGCGCGAUAGCGGCAACGUCCUCAACCUCCAAUGCAUCCCACCACAUGAUGAUGCCUGAAGAGCCUUGGUUUUUUG | -0.25
16 | GACCAAUCUGCCCUCAGAGCUCGAGAACAUCUUCGGAUGCAGAGGAGGCAGGCUUCGGUGGCGCGAUAGCGGCAACGUCCUCAACCUCUAAUGCAUCCCACCACAUGAUGAUGCCUGAAGAGCCUUGGUUUUUUG | -0.34
17 | GACCAAUCUGCCCUCAGAGCUCGAGAACAUCUUCGGAUGCAGAGGAGGCAGGCUUCGGUGGCGCGAUAGCGGCAACGUCCGCAACCUCCAAUGCAUUCCACCACAUGAUGAUGCCUGAAGAGCCUUGGUUUUUUG | -4.63
18 | GACCAAUCUGCCCUCAGAGCUCGAGAACAUCUUCGGAUGCAGAGGAGGCAGGCUUCGGUGGCGCGAUAGCGGCAACGUCCUCAACCUCCAAUGCAUCCCACCACAUGAUGAUCUGUGAAGAGCUUUGGUUUUUUG | -4.29
19 | GACCAAUCUGCCCUCAGAGCUCGAGAACAUCUUCGGAUGCAGAGGAGGCAGGCUUCGGUGGCGCGAUAGCGGCAACGUCCUCAACCUCCAAUGCAUCCCACCACAUGAUGAUGUCUGAAGAGCCUUGGUUUUUUG | -2.37
20 | GACCAAUCUGCCCUCAGAGCUCGAGAACAUCUUCGGAUGCAGAGGAGGCAGGCUUCGGUGGCGCGAUAGCGGCAACGUCCUCAACCUCCAAUGCAUCCCACCACAUGAUGAUGCCUGAAGAGCCUUCGUUUUUUG | -0.368
21 | GACCAAUCUGCCCUCAGAGCUCGAGAACAUCUUCGGAUGCAGAGGAGGCAGGCUUCGGUGGCGCGAUAGCGGCAACGUCCUCAACCUCCAAUGCAUCCCACCACAUGAUGAUGCCUGAAGAGCCUUAGUUUUUUG | -1.26
